Data: patent US11988675B2, “Methods for quantifying frataxin activity” (Larimar Therapeutics, Inc., priority 2019, dated 2024)
Like-named read-outs stand apart in the source and are kept apart here.

Experiments:
[1] = molecular target: T1, FXN fusion protein (Homo sapiens, UniProt Q16595); test: HQ assay in the presence of NADH or NADPH (FIG. 3, Panel B); format: biochemical; conditions: added to the assay with Fe^3+
T1 sequence (Q16595 with tags, fused parts or gaps): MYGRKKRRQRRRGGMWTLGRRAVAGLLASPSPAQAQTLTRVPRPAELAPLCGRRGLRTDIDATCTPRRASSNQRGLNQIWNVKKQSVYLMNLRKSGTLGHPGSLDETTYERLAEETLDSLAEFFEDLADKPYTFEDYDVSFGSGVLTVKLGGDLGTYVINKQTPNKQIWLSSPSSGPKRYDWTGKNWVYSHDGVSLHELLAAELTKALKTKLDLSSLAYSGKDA
Protocol: Redox activity of the FXN fusion protein was also measured in the presence of NADPH and NADH.

[2] = in the presence and absence of metal ions; FIG. 1
Protocol: Protocol for Hydroquinone (HQ) Reduction Assay
a. 1 ml of 1 mM H2DCFDA (in DMSO) is added to 20 mL of 0.01 M NaOH working solution to generate the activating solution. The solution is stirred for 30 minutes at room temperature in the dark.
b. 79 mL of 33 mM NaH2PO4 solution is added to the activating solution to yield a final concentration of 10 μM H2DCF.
b. Excitation and emission reading of the plate is performed every minute, or as required, with a spectrometer set for the following parameters: excitation at 485/20, emission at 528/20, optics from the top, a read height of 1 mm, and a gain of 50.
To each well add: • i. 10 μL of 20× Hydroquinone (to 20 μM final concentration) • ii. 10 μL of 20×Mn^2 (5 μM final concentration)
b. Tris Buffer Addition • i. FXN protein sample well: 168 μL • ii.
b. 10 μL of H2DCF (10 μM working solution) is added to every well (except the DCF standard curve) to arrive at a final concentration of 0.5 μM H2DCF.
b. […] Velocity calculated on 5 points; • 3. Relative fluorescence units (RFU) per minute. • ii. Vi generated from the fluorescence scanner is plotted on a scatter plot • 1. […]
c. […] The line should go through 0,0, and the slope recorded. […]
Generation of ROS, i.e., superoxide, was detected using an ROS detector compound, such as for example, 2′,7′-dichlorodihydrofluorescein (H2DCF), and was followed kinetically, as shown in Panel A of FIG. 1. […]

[3] = in the absence of Fe^3+; 10 μM FXN fusion protein, 10 μM HQ, 5 μM H2DCF
Protocol: In another experiment, the effect of the presence of Fe^3+ ions on the activity of an exemplary FXN fusion protein was studied. In this experiment, the kinetics of ROS generated over time was measured in assay mixtures containing 10 μM exemplary FXN fusion protein, 10 μM HQ, and 5 μM H2DCF. One assay mixture also contained 1 mM deferoxamine, an iron chelator.

[4] = Text: The goal of the first part of the experiment was to validate performance of the HQ assay at the conditions used for the HTS. To this end, the HQ assay was characterized by measuring statistical parameters, such as signal-to-background (S/B) ratio, Z′ factor (which is a measure of the statistical robustness of the assay readout), and intra- and inter-plate variability. To this end, two 96-well plates were each split into 9 sections: 4 sections in each plate contained an exemplary FXN fusion protein at the concentration of 10 μM (high control); 4 sections contained the exemplary FXN fusion protein at the concentration of 0.5 μM (low control); and 1 section contained only the assay mix without the FXN fusion protein (blank control).
H2DCF was activated by incubating in the dark 1 mL of 1 mM H2DCF-DA in 20 mL of 0.01 M NaOH for 30 minutes while stirring. Subsequently, 75 mL of 33 mM NaH2PO4 was added to the activation mixture to yield a final H2DCF concentration of 10 μM. This solution was stored at 4° C. and protected from light until use. The assay mix in each well contained 50 mM Tris-HCL (pH 8.0), 50 μM HQ, 1 μM MnCl2, 0.5 μM activated H2DCF and the exemplary FXN fusion protein at the concentration of 10 μM (high control), 0.5 μM (low control) and 0 μM (blank control). After the assay mix was added to the plate, the plate was immediately placed in the plate reader, and the kinetic read was initiated. The plate reader settings were as follows: 45-minute kinetic scan with a Fluorescent read (excitation 482/20, emission 530/25, and a gain of 50) every minute with a 3 second shake in between reads. Maximum initial velocity (Vi) was determined for each well by measuring the fastest change in arbitrary fluorescence unit (AFU) over 5 data points. The statistical parameters, such as signal-to-background (S/B) ratio, Z′ factor, and intra- and inter-plate variability were calculated to characterize the assay performance.

[5] = test system: FDRA mouse model; test: Treatment of an FDRA mouse model; format: in vivo; conditions: data not shown
Text: (§1) FXN fusion protein having the amino acid sequence of SEQ ID NO: 12 comprises a cell penetrating peptide, HIV-TAT (SEQ ID NO: 4), and a full length hFXN (SEQ ID NO: 1), linked through a linker at the N-terminus of the hFXN.

[6] = test system: FXN-deficient cell lines; test: Genomic footprint of FXN-deficient cell lines before and after FXN fusion protein treatment; format: cell-based; conditions: data not shown
Text: as §1

[7] = Chemical stability study: HQ assay after chemical stress; format: biochemical
Protocol: The goal of this experiment was to evaluate stability to chemical stress of an exemplary FXN fusion protein by evaluating the activity of the exemplary FXN fusion protein after its exposure to chemical stressors that may trigger protein denaturation and/or degradation of the FXN fusion protein.
Briefly, study control was stored at 2-8° C. over the course of the study. Each treatment was conducted as follows:
i. Acid treatment: 1N HCl was added to the solution containing FXN fusion protein until a pH≤4 was reached. The sample was kept at 37° C. for 2 days, and then the buffer exchanged for the buffer of the DS formulation. The sample was stored at 2-8° for the remainder of the study.
ii. Alkaline treatment: 1M Tris base was added to the solution containing FXN fusion protein until a pH≥10 was reached. The sample was kept at 37° C. for 2 days, and then the buffer was exchanged for the buffer of the DS formulation. The sample was stored at 2-8° C.
iii. Acid and Base control: solution containing FXN fusion protein was stored at 37° C. for 2 days, and then stored at 2-8° C.
iv. Oxidation stress treatment: exemplary FXN fusion protein was incubated in the presence of 0.05% hydrogen peroxide at 37° C. for 2 hours and then stored at 2-8° C.
v. Oxidation control: exemplary FXN fusion protein was incubated at 37° C. for 2 hours and then stored at 2-8° C.
vi. Heat stress treatment: exemplary FXN fusion protein was incubated at 50° for 2 hours then stored at 2-8° C.
All samples were analyzed for appearance, pH, protein quantification (by A280), size-exclusion ultra-performance liquid chromatography (SE-UPLC), reversed-phase high-performance liquid chromatography (RP-HPLC), ion-exchange high-performance liquid chromatography (IE-HPLC), reduced capillary electrophoresis sodium dodecyl sulfate (rCE-SDS), non-reduced capillary electrophoresis sodium dodecyl sulfate (nrCE-SDS), and free thiol (data not shown). The concentration of FXN fusion protein was determined by Western blot, and redox activity was determined using the HQ assay as described above.

[8] = 10 μM FXN fusion protein, 5 μM HQ, 5 μM Fe(III) sulfate
Protocol: The goal of this experiment was to evaluate pH dependence of HQ-dependent superoxide generating activity of an exemplary FXN fusion protein. FXN fusion protein of SEQ ID NO: 12 was used in this experiment. Specifically, kinetics of superoxide generation by an exemplary FXN fusion protein was evaluated at pHs ranging from 7.0 to 9.0. Each reaction mixture contained 5 μM HQ, 5 μM Fe(III) sulfate, 0.05 μM H2DCF and 10 μM exemplary FXN fusion protein in 50 mM Tris-HCL at pH of 7.0, 7.4, 7.8, 8.0, 8.2, 8.5 and 9.0.
The assay plate was placed in the plate reader and the kinetic read began immediately after all assay ingredients were mixed together. The plate reader settings were as follows: 2-hour kinetic scan with a Fluorescent read (excitation 485/20, emission 528/25, and a gain of 50) every 5-minutes with a 10 second shake between reads. Maximum initial velocity (Vi) was determined for each well by measuring fastest change in arbitrary fluorescence unit (AFU) over 5 data points.

[9] = Temperature stability study: HQ assay after one month storage; format: biochemical
Protocol: The goal of this experiment was to evaluate thermal stability of an exemplary FXN fusion protein by evaluating the activity of the FXN fusion protein after short-term storage (one month) at different temperatures.
(SPL1), 2-4° C. (SPL2) and 25° C. (SPL3), as compared to the DS control. […] (SPL1), 2-4° C. (SPL2) and 25° C. (SPL3), as compared to the DS control.

[10] = Acid and alkaline control: 37° C. for 2 days
[11] = Acid stress: pH ≤4, at 37° C. for 2 days
[12] = Alkaline stress: pH ≥10, at 37° C. for 2 days
[13] = Heat stress: 50° C. for 2 hours
[14] = Oxidation control: 37° C. for 2 hours
[15] = Oxidation: 0.05% peroxide at 37° C. for 2 hours
[16] = Study control: 2-8° C. for 2 hours
[17] = Drug substance (DS) control (stored at −80° C.)

With `NC(=O)C1=CN([C@@H]2O[C@H](COP(=O)(O)OP(=O)(O)OC[C@H]3O[C@@H](n4cnc5c(N)ncnc54)[C@H](O)[C@@H]3O)[C@@H](O)[C@H]2O)C=CC1` [NADH] the “effect on ROS production / redox activity of the FXN fusion protein” value [1] was “did not affect the redox activity”.

In the case of `NC(=O)C1=CN([C@@H]2O[C@H](COP(=O)(O)OP(=O)(O)OC[C@H]3O[C@@H](n4cnc5c(N)ncnc54)[C@H](OP(=O)(O)O)[C@@H]3O)[C@@H](O)[C@H]2O)C=CC1` [NADPH], the “effect on ROS production / redox activity of the FXN fusion protein” value [1] is reported as “significantly diminished ROS production”.

B1: FXN fusion protein: cell penetrating peptide HIV-TAT linked through a linker to the N-terminus of full length hFXN; amino acid sequence of SEQ ID NO: 12 (protein)
chain: MYGRKKRRQRRRGGMWTLGRRAVAGLLASPSPAQAQTLTRVPRPAELAPLCGRRGLRTDIDATCTPRRASSNQRGLNQIWNVKKQSVYLMNLRKSGTLGHPGSLDETTYERLAEETLDSLAEFFEDLADKPYTFEDYDVSFGSGVLTVKLGGDLGTYVINKQTPNKQIWLSSPSSGPKRYDWTGKNWVYSHDGVSLHELLAAELTKALKTKLDLSSLAYSGKDA
For B1, the “enzymatic activity, as measured by ROS generation over time” value [2] was “possesses enzymatic activity”, the “lag time to ROS generation” value [3] was “approximately 2 hours” and the “Mean Vi” value ([4]; Plate 1, High control (10 µM FXN fusion protein)) was 5390.0. The “Mean Vi” value ([4]; Plate 1, Low control (0.5 μM FXN fusion protein)) was 471.0, the “Mean Vi” value ([4]; Plate 2, High control (10 μM FXN fusion protein)) was 4995.1 and the “Mean Vi” value ([4]; Plate 2, Low control (0.5 μM FXN fusion protein)) was 635.5. The “Mean Vi” value ([4]; Plates 1 and 2 combined, High control (10 μM FXN fusion protein)) was 5192.5, the “Mean Vi” value ([4]; Plates 1 and 2 combined, Low control (0.5 μM FXN fusion protein)) was 553.2 and the “cardiomyopathic phenotype, for example cardiac contractility” value [5] was “measurable improvement in the cardiomyopathic phenotype”. The “expression of a set of genes before and after treatment” value [6] was “significant difference in the expression of a set of genes”, the “Result (% activity)” value [7, 10] was 79.7% and the Vi [7, 10] was “(1,730 Vi units)”. The “Result (% activity)” value [7, 11] was 23.7%, the Vi [7, 11] was “(689 Vi units)” and the “Result (% activity)” value [7, 12] was 0.02%. The Vi [7, 12] was “(0.7 Vi units)”, the “Result (% activity)” value [7, 13] was 96.9% and the Vi [7, 13] was “(2,820 Vi units)”. For the same molecule, the “Result (% activity)” value [7, 14] was 59.5%, the Vi [7, 14] was “(1,730 Vi units)” and the “Result (% activity)” value [7, 15] was 2.2%. For the same molecule, the Vi [7, 15] was “(63 Vi units)”, the “Result (% activity)” value [7, 16] was 100% and the Vi [7, 16] was “(2,908 Vi units)”. The “stability of HQ activity to acid stress” value ([7]; acid stress) was “partly susceptible”, the “stability of HQ activity to alkaline stress” value ([7]; alkaline stress) was “susceptible” and the “stability of HQ activity to heat stress” value ([7]; heat stress applied for 2 hours) was “to a large extent, was resistant to heat stress”. For the same molecule, the “stability of HQ activity to oxidation stress” value ([7]; oxidation stress) was “susceptible”, the “pH at which activity peaks” value ([8]; pH 7.0 to 9.0) was “about 8.5” and the “superoxide-generating activity (Vi)” value ([8]; pH of 7.4 or lower) was “almost no activity”. For the same molecule, the “Result (% activity)” value [9, 17] was 100.2%, the Vi [9, 17] was “(1126 Vi units)” and the “Result (% activity)” value ([9]; SPL1: −60° C. for 1 month) was 100%. The Vi ([9]; SPL1: −60° C. for 1 month) was “(1123 Vi units)”, the “Result (% activity)” value ([9]; SPL2: 2-4° C. for 1 month) was 66.4% and the Vi ([9]; SPL2: 2-4° C. for 1 month) was “(746 Vi units)”. The “Result (% activity)” value ([9]; SPL3: 25° C. for 1 month) was 23.4%, the Vi ([9]; SPL3: 25° C. for 1 month) was “(263 Vi units)” and the “activity in the HQ Assay after storage” value ([9]; storage in conditions other than −60° C. for one month) was “decreased activity”.
